Data published in the Human Domainome abundance scans (Beltran et al. 2025).
± gives the uncertainty stated by the source.

B1: CD2-associated protein, residues 109 to 169; numbered along this chain, Q9Y5K6 (parent)
chain: KKRQCKVLFEYIPQNEDELELKVGDIIDINEEVEEGWWSGTLNNKLGLFPSNFVKELEVTD

Variants of: B1
Test: abundance fitness (aPCA) (normalised: wild type 0, dead -1); higher = more abundant; growth selection in yeast, the domain comes from the species named
Conditions: Homo sapiens

Abundance fitness: each site, then its substitutions
T41: Q -0.062 ± 0.13; I -0.246 ± 0.19; M -0.162 ± 0.12; V 0.078 ± 0.09; Y -0.065 ± 0.16; K -0.229 ± 0.3; L -0.318 ± 0.095; W 0.016 ± 0.17; E -0.05 ± 0.17; G -0.517 ± 0.15; F -0.274 ± 0.2; H -0.158 ± 0.25; S -0.35 ± 0.15; R -0.171 ± 0.12; N -0.011 ± 0.45; A -0.182 ± 0.1
L46: G -0.303 ± 0.076; T 0.151 ± 0.055; E 0.138 ± 0.11; N 0.074 ± 0.056; I 0.169 ± 0.049; W 0.013 ± 0.079; P -0.196 ± 0.074; Y 0.011 ± 0.049; Q 0.022 ± 0.099; A 0.031 ± 0.069; S 0.113 ± 0.044; M 0.006 ± 0.1; F 0.092 ± 0.046; K 0.069 ± 0.099; H 0.035 ± 0.051; C 0.127 ± 0.058; D 0.034 ± 0.082; V 0.047 ± 0.071
G40: A -0.747 ± 0.47; Q -1.03 ± 0.43; W -0.668 ± 0.16; F -0.477 ± 0.16; S -0.92 ± 0.24; L -1.17 ± 0.29; V -0.306 ± 0.14; T -1.02 ± 0.5; C -0.664 ± 0.14
N43: Q -0.275 ± 0.15; M -0.144 ± 0.17; V -0.679 ± 0.21; F -0.137 ± 0.27; E -0.333 ± 0.27; H -0.014 ± 0.21; S -0.337 ± 0.11; Y -0.553 ± 0.34; C -0.19 ± 0.37; R 0.061 ± 0.073; T -0.835 ± 0.21; K -0.544 ± 0.33; P -0.791 ± 0.36; L -0.489 ± 0.1; G -0.09 ± 0.13
F49: S -0.707 ± 0.16; W -1.01 ± 0.25; Y -0.27 ± 0.4; A -0.755 ± 0.31; R -1.3 ± 0.26; D -0.815 ± 0.4; L -0.77 ± 0.15; C -0.953 ± 0.34; E -0.872 ± 0.45; K -0.524 ± 0.3; T -0.921 ± 0.29; G -1.06 ± 0.27
E56: F -0.406 ± 0.21; A -0.366 ± 0.12; V -0.105 ± 0.08; W -0.769 ± 0.19; H -0.666 ± 0.23; I -0.225 ± 0.11; L -0.058 ± 0.068; S -0.32 ± 0.094; K 0.16 ± 0.14; C 0.034 ± 0.14; Y -0.717 ± 0.28; T -0.033 ± 0.097; P -0.224 ± 0.1; D -0.505 ± 0.24; Q -0.291 ± 0.18
S39: P -1.1 ± 0.33; Y -0.257 ± 0.12; M -0.126 ± 0.093; W -0.03 ± 0.12; T -0.06 ± 0.084; V 0.094 ± 0.074; A -0.349 ± 0.11; K 0.166 ± 0.091; H -0.085 ± 0.15; E -0.097 ± 0.15; Q -0.217 ± 0.097; D -0.696 ± 0.28; L 0.057 ± 0.061; G -0.459 ± 0.11; N -0.25 ± 0.11
G47: Q -0.696 ± 0.17; I -0.584 ± 0.35; T -0.644 ± 0.16; N -0.723 ± 0.41; L -0.922 ± 0.16; W -0.759 ± 0.18; D -0.611 ± 0.19; F -0.784 ± 0.28; P -0.82 ± 0.17; S -1.05 ± 0.26; M -1.21 ± 0.4; Y -0.434 ± 0.19; K -0.773 ± 0.23
K45: L -0.638 ± 0.14; N -0.183 ± 0.2; Q 0.04 ± 0.26; I -0.433 ± 0.29; F -0.695 ± 0.22; R -0.066 ± 0.078; C -0.065 ± 0.17; Y -0.273 ± 0.3; E -0.453 ± 0.18; V -0.556 ± 0.16; T -0.458 ± 0.21; M -0.55 ± 0.28; S -0.603 ± 0.15; A -0.779 ± 0.21
K55: V -0.146 ± 0.078; M 0.009 ± 0.091; C -0.142 ± 0.11; E 0.127 ± 0.075; Q 0.064 ± 0.096; G -0.131 ± 0.083; N -0.193 ± 0.27; T -0.163 ± 0.11; R 0.017 ± 0.064; H -0.035 ± 0.22; A -0.01 ± 0.087; P -1.05 ± 0.31; L -0.29 ± 0.064; I -0.077 ± 0.1; S -0.259 ± 0.08; D -0.313 ± 0.25
T60: K -0.006 ± 0.39; W -0.198 ± 0.3; Y -0.489 ± 0.25; S -0.039 ± 0.1; R -0.366 ± 0.13; E 0.019 ± 0.13; D 0.183 ± 0.28; M -0.257 ± 0.18; Q 0.039 ± 0.13; C -0.183 ± 0.19; H 0.045 ± 0.16; L 0.01 ± 0.14; V -0.399 ± 0.27
V59: L 0.013 ± 0.072; T 0.01 ± 0.1; A 0.001 ± 0.2; F 0.229 ± 0.14; R -0.131 ± 0.078; H -0.012 ± 0.13; E 0.174 ± 0.14; N -0.342 ± 0.47; M -0.219 ± 0.12; W -0.117 ± 0.079; I -0.087 ± 0.13; S 0.163 ± 0.088; C -0.123 ± 0.13; P -0.138 ± 0.14; Y 0.036 ± 0.19; Q -0.166 ± 0.13; K -0.283 ± 0.27
D61: E 0.283 ± 0.26; A -0.29 ± 0.22; C -0.561 ± 0.23
L48: M -0.107 ± 0.08; P -0.403 ± 0.12; D -0.821 ± 0.21; C -0.094 ± 0.13; V -0.067 ± 0.055; N -0.187 ± 0.14; Y -0.033 ± 0.082; F -0.19 ± 0.1; G -0.618 ± 0.11; T -0.021 ± 0.084; K 0.197 ± 0.073; I -0.022 ± 0.13; H -0.291 ± 0.11; R 0.273 ± 0.074; W -0.201 ± 0.1; S -0.438 ± 0.091; Q -0.298 ± 0.092; E -0.539 ± 0.14
L57: K -0.263 ± 0.15; P -0.508 ± 0.23; F -0.148 ± 0.13; I 0.241 ± 0.18; E -0.133 ± 0.14; T -0.269 ± 0.13; Q -0.485 ± 0.27; G -0.864 ± 0.44; S -0.601 ± 0.14; N -0.69 ± 0.3; W -0.486 ± 0.18; C -0.041 ± 0.33; R -0.64 ± 0.15; V -0.239 ± 0.13; A -0.585 ± 0.4
N52: M -0.12 ± 0.17; K 0.048 ± 0.16; Q -0.255 ± 0.11; R 0.048 ± 0.079; S -0.02 ± 0.079; P -0.228 ± 0.12; E 0.053 ± 0.086; D -0.016 ± 0.1; C 0.114 ± 0.13; A -0.067 ± 0.092; H -0.348 ± 0.21; Y -0.34 ± 0.15; L -0.287 ± 0.096; W -0.454 ± 0.12; F -0.228 ± 0.24
E58: S -0.035 ± 0.1; Q 0.202 ± 0.19; I -0.23 ± 0.26; C -0.073 ± 0.12; F -0.207 ± 0.15; W 0.098 ± 0.16; L -0.062 ± 0.081; T -0.211 ± 0.18; K 0.027 ± 0.12; D 0.056 ± 0.18; R -0.232 ± 0.1; Y -0.045 ± 0.14; M 0 ± 0.26; N -0.057 ± 0.12; A -0.305 ± 0.15; G 0.094 ± 0.11; V 0.078 ± 0.14
V54: T -0.222 ± 0.15; P -0.816 ± 0.27; C 0.125 ± 0.26; A -0.52 ± 0.15; G -0.661 ± 0.16; S -0.94 ± 0.36; Q -0.546 ± 0.41; R -0.969 ± 0.31; L -0.753 ± 0.15; F -0.416 ± 0.33; I -0.113 ± 0.12; N -0.84 ± 0.44; W -0.903 ± 0.24; M -0.63 ± 0.23
S51: D -0.324 ± 0.24; G -0.35 ± 0.086; V -0.069 ± 0.067; L -0.366 ± 0.088; A 0.09 ± 0.07; F -0.431 ± 0.26; W -0.093 ± 0.11; C -0.311 ± 0.16; P -0.429 ± 0.12; E -0.762 ± 0.33; N -0.769 ± 0.4; K -0.12 ± 0.13; I -0.178 ± 0.27; M -0.138 ± 0.11; Q -0.307 ± 0.15; R -0.361 ± 0.091; T -0.047 ± 0.11
F53: S 0.037 ± 0.096; Y 0.019 ± 0.22; H 0.054 ± 0.22; W -0.56 ± 0.31; K -0.031 ± 0.15; E -0.894 ± 0.45; R 0.007 ± 0.079; I 0.149 ± 0.11; M 0.057 ± 0.13; A 0.015 ± 0.13; G -0.48 ± 0.17; N -0.109 ± 0.12; Q -0.2 ± 0.13; C 0.067 ± 0.12; P -0.525 ± 0.2; L -0.157 ± 0.093; T -0.255 ± 0.19
W38: T -0.618 ± 0.15; V -0.46 ± 0.098; Y 0.109 ± 0.13
N44: S -0.261 ± 0.18; M -0.318 ± 0.16; L -0.489 ± 0.14; A -0.048 ± 0.14; V -0.795 ± 0.25; Y -0.483 ± 0.33; P -0.356 ± 0.37; K 0.019 ± 0.24; Q -0.183 ± 0.24; R -0.273 ± 0.16
L42: P -0.732 ± 0.41; H -0.252 ± 0.32; I -0.242 ± 0.23; F -0.616 ± 0.23; E -0.922 ± 0.34; N 0.12 ± 0.15; G -0.451 ± 0.12; R -0.388 ± 0.084; S 0.042 ± 0.1; Q -0.432 ± 0.4; A -0.391 ± 0.12; K -0.317 ± 0.12; C -0.174 ± 0.16; Y -0.01 ± 0.2; M -0.486 ± 0.23; D -0.241 ± 0.3; T -0.131 ± 0.13; W -0.945 ± 0.45; V -0.064 ± 0.1
P50: L -0.665 ± 0.17; K -0.226 ± 0.12; R -0.064 ± 0.075; M -0.57 ± 0.21; Q -0.279 ± 0.17; W -0.764 ± 0.14; T -0.367 ± 0.16; A -0.941 ± 0.31; G -0.697 ± 0.17; S -0.465 ± 0.13; V -1.03 ± 0.41; N -0.045 ± 0.16; H 0.078 ± 0.17
